Consider one molecule from US20240287161A1 (NATIONAL UNIVERSITY CORPORATION TOTTORI UNIVERSITY, published 2024).

Experiment [1] addresses T1, HCoV-HKU1 trimeric S protein (amino acids 13-1293) with T4 foldon, histidine tag and strep-tag (HCoV-HKU1, UniProt Q5MQD0 13-1297).
T1 sequence: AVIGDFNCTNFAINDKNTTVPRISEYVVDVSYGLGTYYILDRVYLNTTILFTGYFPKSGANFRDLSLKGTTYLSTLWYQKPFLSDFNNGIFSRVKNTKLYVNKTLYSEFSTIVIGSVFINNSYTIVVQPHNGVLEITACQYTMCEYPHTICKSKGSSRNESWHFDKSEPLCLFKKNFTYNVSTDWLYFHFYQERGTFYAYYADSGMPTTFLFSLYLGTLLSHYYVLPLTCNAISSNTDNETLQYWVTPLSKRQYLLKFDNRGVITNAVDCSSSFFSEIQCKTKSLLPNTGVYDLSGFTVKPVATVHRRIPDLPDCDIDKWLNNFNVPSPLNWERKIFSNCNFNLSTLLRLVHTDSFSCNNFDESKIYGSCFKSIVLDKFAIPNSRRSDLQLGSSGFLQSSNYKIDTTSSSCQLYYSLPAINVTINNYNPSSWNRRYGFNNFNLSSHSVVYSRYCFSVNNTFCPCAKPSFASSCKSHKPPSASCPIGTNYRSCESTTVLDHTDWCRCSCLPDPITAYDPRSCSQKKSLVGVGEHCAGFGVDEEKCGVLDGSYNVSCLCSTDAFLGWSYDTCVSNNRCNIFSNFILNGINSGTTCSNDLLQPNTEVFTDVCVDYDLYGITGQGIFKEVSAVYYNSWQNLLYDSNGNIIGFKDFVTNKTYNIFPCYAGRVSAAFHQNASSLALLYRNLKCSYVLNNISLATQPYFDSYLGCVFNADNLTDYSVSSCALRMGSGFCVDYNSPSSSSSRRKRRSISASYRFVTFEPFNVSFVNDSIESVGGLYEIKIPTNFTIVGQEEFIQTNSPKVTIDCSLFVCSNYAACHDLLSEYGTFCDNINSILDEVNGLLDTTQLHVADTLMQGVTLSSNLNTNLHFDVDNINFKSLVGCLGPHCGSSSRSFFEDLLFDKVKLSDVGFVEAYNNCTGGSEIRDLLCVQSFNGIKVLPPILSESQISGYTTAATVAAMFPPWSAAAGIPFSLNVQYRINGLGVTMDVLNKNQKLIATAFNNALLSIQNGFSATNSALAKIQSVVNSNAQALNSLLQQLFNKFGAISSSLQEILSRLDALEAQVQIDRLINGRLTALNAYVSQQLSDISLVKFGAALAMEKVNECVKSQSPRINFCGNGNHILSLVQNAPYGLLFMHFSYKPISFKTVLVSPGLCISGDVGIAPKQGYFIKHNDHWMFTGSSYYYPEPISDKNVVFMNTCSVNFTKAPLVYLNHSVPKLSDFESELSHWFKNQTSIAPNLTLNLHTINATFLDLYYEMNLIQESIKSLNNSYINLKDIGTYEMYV
In words: ELISA on coated S-trimeric antigen, anti-human IgG-HRP [Human IgG1, NT-108].

Experiment [2] concerns the target T2, HCoV-NL63 trimeric S protein (amino acids 22-1293) with T4 foldon, histidine tag and strep-tag (HCoV-NL63, UniProt Q6Q1S2 23-1293).
T2 sequence: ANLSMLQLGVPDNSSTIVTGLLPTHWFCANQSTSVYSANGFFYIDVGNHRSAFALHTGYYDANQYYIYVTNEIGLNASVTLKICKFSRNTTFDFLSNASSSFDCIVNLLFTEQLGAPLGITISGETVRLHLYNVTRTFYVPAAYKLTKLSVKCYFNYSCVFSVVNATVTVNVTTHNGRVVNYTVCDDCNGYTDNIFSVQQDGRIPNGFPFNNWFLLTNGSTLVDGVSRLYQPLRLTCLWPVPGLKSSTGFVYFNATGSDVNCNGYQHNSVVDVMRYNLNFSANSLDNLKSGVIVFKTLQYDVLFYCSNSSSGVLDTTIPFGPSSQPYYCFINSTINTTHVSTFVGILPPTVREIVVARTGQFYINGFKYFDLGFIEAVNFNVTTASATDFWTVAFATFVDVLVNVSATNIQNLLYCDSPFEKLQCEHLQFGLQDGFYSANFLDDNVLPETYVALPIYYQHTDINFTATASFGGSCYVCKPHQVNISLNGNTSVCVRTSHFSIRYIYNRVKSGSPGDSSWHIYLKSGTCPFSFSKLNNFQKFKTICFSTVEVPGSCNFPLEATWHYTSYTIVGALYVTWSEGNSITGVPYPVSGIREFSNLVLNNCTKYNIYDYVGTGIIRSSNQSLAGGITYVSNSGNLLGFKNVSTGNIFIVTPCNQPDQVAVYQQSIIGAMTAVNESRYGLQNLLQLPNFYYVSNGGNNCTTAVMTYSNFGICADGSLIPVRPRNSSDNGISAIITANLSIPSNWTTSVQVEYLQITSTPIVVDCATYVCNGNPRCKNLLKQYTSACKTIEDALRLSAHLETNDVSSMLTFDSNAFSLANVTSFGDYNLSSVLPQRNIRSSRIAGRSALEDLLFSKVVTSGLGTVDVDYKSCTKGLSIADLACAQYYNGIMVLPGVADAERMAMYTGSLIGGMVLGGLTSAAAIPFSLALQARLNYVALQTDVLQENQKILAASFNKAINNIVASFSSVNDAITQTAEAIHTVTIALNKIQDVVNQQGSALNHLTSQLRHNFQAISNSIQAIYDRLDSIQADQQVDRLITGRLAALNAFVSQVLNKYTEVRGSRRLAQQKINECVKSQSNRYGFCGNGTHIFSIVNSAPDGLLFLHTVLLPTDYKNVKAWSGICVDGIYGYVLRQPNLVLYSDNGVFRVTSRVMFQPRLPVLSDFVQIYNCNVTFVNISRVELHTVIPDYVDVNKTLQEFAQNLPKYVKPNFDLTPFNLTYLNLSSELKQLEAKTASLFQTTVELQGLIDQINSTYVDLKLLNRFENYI
The experiment is described as above.

B1: NT-108 (recombinant human IgG1/kappa antibody) (antibody, V domains shown)
VH: EVQLQQSGPGLVKPSQTLSLTCSISGDSVSSNSAAWNWIRQSPSRGLEWLGRTYYRSKWYNDYAGTVKSRIAINPDTSKNQFSLHLNSVTPEDTAVYFCARVISVAGYAFDIWGQGTMVTVSS
VL: EIVLTQSPGTLSLSPGERATLSCRASQSVSSTFLAWYQQKPGQAPRLLIYGASYMATGIPDRFSGSGSGTDFTLTISRLEPEDFAVYYCQQYGSSLTFGGGTKLEIK
With B1, the binding result in experiment [1] and in experiment [2] was “no binding (tested: 1000 ng/ml)” in each case.
